Measurements reported in PMC5629025 (2017).

B1: FLAG-, HA-tagged wild-type Bag-1L [human] / androgen receptor, endogenous in LNCaP cells [human (endogenous in LNCaP)] (parent complex)
chain 1: MAQRGGARRPRGDRERLGSRLRALRPGREPRQSEPPAQRGPPPSGRPPARSTASGHDRPTRGAAAGARRPRMKKKTRRRSTRSEELTRSEELTLSEEATWSEEATQSEEATQGEEMNRSQEVTRDEESTRSEEVTREEMAAAGLTVTVTHSNEKHDLHVTSQQGSSEPVVQDLAQVVEEVIGVPQSFQKLIFKGKSLKEMETPLSALGIQDGCRVMLIGKKNSPQEEVELKKLKHLEKSVEKIADQLEELNKELTGIQQGFLPKDLQAEALCKLDRRVKATIEQFMKILEEIDTLILPENFKDSRLKRKGLVKKVQAFLAECDTVEQNICQETERLQSTNFALAE
chain 2: MEVQLGLGRVYPRPPSKTYRGAFQNLFQSVREVIQNPGPRHPEAASAAPPGASLLLLQQQQQQQQQQQQQQQQQQQQQQQETSPRQQQQQQGEDGSPQAHRRGPTGYLVLDEEQQPSQPQSALECHPERGCVPEPGAAVAASKGLPQQLPAPPDEDDSAAPSTLSLLGPTFPGLSSCSADLKDILSEASTMQLLQQQQQEAVSEGSSSGRAREASGAPTSSKDNYLGGTSTISDNAKELCKAVSVSMGLGVEALEHLSPGEQLRGDCMYAPLLGVPPAVRPTPCAPLAECKGSLLDDSAGKSTEDTAEYSPFKGGYTKGLEGESLGCSGSAAAGSSGTLELPSTLSLYKSGALDEAAAYQSRDYYNFPLALAGPPPPPPPPHPHARIKLENPLDYGSAWAAAAAQCRYGDLASLHGAGAAGPGSGSPSAAASSSWHTLFTAEEGQLYGPCGGGGGGGGGGGGGGGGGGGGGGGEAGAVAPYGYTRPPQGLAGQESDFTAPDVWYPGGMVSRVPYPSPTCVKSEMGPWMDSYSGPYGDMRLETARDHVLPIDYYFPPQKTCLICGDEASGCHYGALTCGSCKVFFKRAAEGKQKYLCASRNDCTIDKFRRKNCPSCRLRKCYEAGMTLGARKLKKLGNLKLQEEGEASSTTSPTEETTQKLTVSHIEGYECQPIFLNVLEAIEPGVVCAGHDNNQPDSFAALLSSLNELGERQLVHVVKWAKALPGFRNLHVDDQMAVIQYSWMGLMVFAMGWRSFTNVNSRMLYFAPDLVFNEYRMHKSRMYSQCVRMRHLSQEFGWLQITPQEFLCMKALLLFSIIPVDGLKNQKFFDELRMNYIKELDRIIACKRKNPTSCSRRFYQLTKLLDSVQPIARELHQFTFDLLIKSHMVSVDFPEMMAEIISVQVPKILSGKVKPIYFHTQ

Variants of: B1
Test: SILAC RIME; LNCaP cells stably expressing FLAG-HA-tagged wild-type or CMut Bag-1L; parent: 21; read off a plot

response	Variant
~19 log2 intensity	chain 1 K231A, chain 1 K232A, chain 1 K279A
